The data set deals with Escherichia coli TOP10. Put plainly: shrunken log2 fold change of peptide-encoding DNA abundance (4.5 h post-induction vs induction); higher = less antimicrobial activity (less host growth inhibition). The settings on record: time post-induction: 4.5 h; library: site-saturation at positions 5, 18, 19, 20.
For RRIRLRPPRLPRPRPRPWHYPRP, the “shrunken log2 fold change” value is -0.164.

On to RRIRCRPPRLPRPRPRPARMPRP, for which the “shrunken log2 fold change” value came out at 0.264.

As to RRIRWRPPRLPRPRPRPDLMPRP, the “shrunken log2 fold change” value worked out at 0.325.

For the sequence RRIRLRPPRLPRPRPRPPLAPRP, the “shrunken log2 fold change” value is 0.519.

RRIRCRPPRLPRPRPRPMLVPRP: the “shrunken log2 fold change” value is -0.144.

As for RRIRARPPRLPRPRPRPSEEPRP, the “shrunken log2 fold change” value stood at 0.452.

For the sequence RRIRLRPPRLPRPRPRPDFTPRP, the “shrunken log2 fold change” value was 0.102.

In the case of RRIRHRPPRLPRPRPRPEDFPRP, the “shrunken log2 fold change” value came out at 0.0333.

In the case of RRIRTRPPRLPRPRPRPTSWPRP, the “shrunken log2 fold change” value stood at 0.139.

RRIRNRPPRLPRPRPRPMLDPRP: the “shrunken log2 fold change” value is -0.000365.

In the case of RRIRYRPPRLPRPRPRPRHFPRP, the “shrunken log2 fold change” value was -0.209.

On to RRIRNRPPRLPRPRPRPTMTPRP, for which the “shrunken log2 fold change” value came to 0.149.

Regarding RRIRDRPPRLPRPRPRPEMNPRP, the “shrunken log2 fold change” value was determined as 0.128.

Regarding RRIRSRPPRLPRPRPRPPDQPRP, the “shrunken log2 fold change” value was determined as 0.674.

For the sequence RRIRFRPPRLPRPRPRPMRAPRP, the “shrunken log2 fold change” value amounted to 1.02.

As for RRIRWRPPRLPRPRPRPLMWPRP, the “shrunken log2 fold change” value came to 0.173.

On to RRIRKRPPRLPRPRPRPSDCPRP, for which the “shrunken log2 fold change” value is -0.00471.

With RRIRDRPPRLPRPRPRPHNRPRP, the “shrunken log2 fold change” value is -0.00159.

As to RRIRQRPPRLPRPRPRPDTVPRP, the “shrunken log2 fold change” value is -0.171.

As to RRIRERPPRLPRPRPRPCIWPRP, the “shrunken log2 fold change” value is -0.0915.

As to RRIRYRPPRLPRPRPRPTGNPRP, the “shrunken log2 fold change” value is -0.858.

As to RRIRQRPPRLPRPRPRPGILPRP, the “shrunken log2 fold change” value was -0.181.

In the case of RRIRNRPPRLPRPRPRPNWYPRP, the “shrunken log2 fold change” value was -0.647.

As for RRIRPRPPRLPRPRPRPYFIPRP, the “shrunken log2 fold change” value is -0.656.

With RRIRSRPPRLPRPRPRPCCWPRP, the “shrunken log2 fold change” value was -0.0914.

As for RRIRARPPRLPRPRPRPSSEPRP, the “shrunken log2 fold change” value is 0.271.

Turning to RRIRVRPPRLPRPRPRPWHLPRP, the “shrunken log2 fold change” value is -0.191.

Turning to RRIRHRPPRLPRPRPRPCYRPRP, the “shrunken log2 fold change” value was -0.121.

As for RRIRGRPPRLPRPRPRPVSHPRP, the “shrunken log2 fold change” value worked out at 0.389.

RRIRSRPPRLPRPRPRPFGPPRP: the “shrunken log2 fold change” value amounted to 0.132.

As for RRIRMRPPRLPRPRPRPLHSPRP, the “shrunken log2 fold change” value came to 0.0835.

Take RRIRPRPPRLPRPRPRPVSKPRP: the “shrunken log2 fold change” value was -0.166.

Turning to RRIRHRPPRLPRPRPRPSMDPRP, the “shrunken log2 fold change” value is -0.828.

For the sequence RRIRMRPPRLPRPRPRPFQTPRP, the “shrunken log2 fold change” value worked out at 0.00707.

On to RRIRYRPPRLPRPRPRPGYDPRP, for which the “shrunken log2 fold change” value was -0.205.

For the sequence RRIRPRPPRLPRPRPRPYEWPRP, the “shrunken log2 fold change” value was -0.874.

Take RRIRIRPPRLPRPRPRPDLRPRP: the “shrunken log2 fold change” value was -0.0147.

On to RRIRLRPPRLPRPRPRPNHHPRP, for which the “shrunken log2 fold change” value is -0.0905.

For the sequence RRIRLRPPRLPRPRPRPEQGPRP, the “shrunken log2 fold change” value was found to be 1.07.

Consider RRIRTRPPRLPRPRPRPEPDPRP, for which the “shrunken log2 fold change” value amounted to 0.286.

As to RRIRDRPPRLPRPRPRPRPSPRP, the “shrunken log2 fold change” value is 0.329.

Take RRIRERPPRLPRPRPRPRWLPRP: the “shrunken log2 fold change” value is 0.108.

RRIRTRPPRLPRPRPRPLFVPRP: the “shrunken log2 fold change” value was -0.382.

Regarding RRIRCRPPRLPRPRPRPSHHPRP, the “shrunken log2 fold change” value is -0.603.

Consider RRIRPRPPRLPRPRPRPGANPRP, for which the “shrunken log2 fold change” value was found to be 0.364.

Turning to RRIRIRPPRLPRPRPRPSDGPRP, the “shrunken log2 fold change” value was -0.0648.

RRIRARPPRLPRPRPRPAHDPRP: the “shrunken log2 fold change” value came to 0.184.

For RRIRFRPPRLPRPRPRPPEEPRP, the “shrunken log2 fold change” value is 0.153.

RRIRRRPPRLPRPRPRPMNFPRP: the “shrunken log2 fold change” value was 0.154.

As to RRIRDRPPRLPRPRPRPVWVPRP, the “shrunken log2 fold change” value was -0.203.

As to RRIRMRPPRLPRPRPRPKFDPRP, the “shrunken log2 fold change” value worked out at 0.217.

On to RRIRNRPPRLPRPRPRPREMPRP, for which the “shrunken log2 fold change” value came out at 0.0274.

For RRIRRRPPRLPRPRPRPDHLPRP, the “shrunken log2 fold change” value was -0.0237.

On to RRIRYRPPRLPRPRPRPQSNPRP, for which the “shrunken log2 fold change” value is -0.07.

Consider RRIRFRPPRLPRPRPRPNGWPRP, for which the “shrunken log2 fold change” value was 0.0579.

RRIRARPPRLPRPRPRPSQDPRP: the “shrunken log2 fold change” value is 0.196.

For the sequence RRIRRRPPRLPRPRPRPDLIPRP, the “shrunken log2 fold change” value worked out at 0.0201.

RRIRGRPPRLPRPRPRPSLPPRP: the “shrunken log2 fold change” value worked out at 0.178.

In the case of RRIRQRPPRLPRPRPRPMFKPRP, the “shrunken log2 fold change” value was -0.572.

In the case of RRIRNRPPRLPRPRPRPKARPRP, the “shrunken log2 fold change” value was -0.00166.

As to RRIRIRPPRLPRPRPRPICKPRP, the “shrunken log2 fold change” value is -0.199.

With RRIRIRPPRLPRPRPRPVALPRP, the “shrunken log2 fold change” value is -0.278.

For the sequence RRIRWRPPRLPRPRPRPALIPRP, the “shrunken log2 fold change” value is 0.0212.

Take RRIRMRPPRLPRPRPRPSQLPRP: the “shrunken log2 fold change” value was -0.0454.

RRIRIRPPRLPRPRPRPGTTPRP: the “shrunken log2 fold change” value stood at 0.252.

In the case of RRIRVRPPRLPRPRPRPTTVPRP, the “shrunken log2 fold change” value was -0.241.

For RRIRKRPPRLPRPRPRPYQNPRP, the “shrunken log2 fold change” value is -0.198.

Consider RRIRHRPPRLPRPRPRPSCGPRP, for which the “shrunken log2 fold change” value is -0.304.

As to RRIRGRPPRLPRPRPRPSTEPRP, the “shrunken log2 fold change” value is 1.14.

Regarding RRIRQRPPRLPRPRPRPANEPRP, the “shrunken log2 fold change” value is -0.104.

Consider RRIRLRPPRLPRPRPRPQPMPRP, for which the “shrunken log2 fold change” value is 0.216.

On to RRIRSRPPRLPRPRPRPCPHPRP, for which the “shrunken log2 fold change” value is -0.283.

For the sequence RRIRLRPPRLPRPRPRPREQPRP, the “shrunken log2 fold change” value came out at 0.134.

Take RRIRHRPPRLPRPRPRPTDLPRP: the “shrunken log2 fold change” value was -0.154.

As to RRIRPRPPRLPRPRPRPMKTPRP, the “shrunken log2 fold change” value was -0.0446.

RRIRARPPRLPRPRPRPEFRPRP: the “shrunken log2 fold change” value amounted to 0.327.

As for RRIRPRPPRLPRPRPRPWAEPRP, the “shrunken log2 fold change” value was determined as 0.166.

For RRIRTRPPRLPRPRPRPTKRPRP, the “shrunken log2 fold change” value came out at 0.139.

For RRIRVRPPRLPRPRPRPDRHPRP, the “shrunken log2 fold change” value is -0.0428.

Turning to RRIRVRPPRLPRPRPRPVQQPRP, the “shrunken log2 fold change” value was -0.246.

For the sequence RRIRFRPPRLPRPRPRPTWMPRP, the “shrunken log2 fold change” value was found to be 0.611.

With RRIRTRPPRLPRPRPRPNGTPRP, the “shrunken log2 fold change” value is -0.402.

Consider RRIRQRPPRLPRPRPRPMNSPRP, for which the “shrunken log2 fold change” value was -0.468.

As for RRIRSRPPRLPRPRPRPDYKPRP, the “shrunken log2 fold change” value was -0.722.

Consider RRIRWRPPRLPRPRPRPLFWPRP, for which the “shrunken log2 fold change” value turned out to be 0.373.

Take RRIRARPPRLPRPRPRPVSSPRP: the “shrunken log2 fold change” value turned out to be 0.155.

Consider RRIRRRPPRLPRPRPRPRMEPRP, for which the “shrunken log2 fold change” value came out at 0.0167.

As to RRIRNRPPRLPRPRPRPPLCPRP, the “shrunken log2 fold change” value amounted to 0.167.

Consider RRIRERPPRLPRPRPRPQKQPRP, for which the “shrunken log2 fold change” value was -0.0621.

With RRIRGRPPRLPRPRPRPVWDPRP, the “shrunken log2 fold change” value amounted to 0.593.

For the sequence RRIRERPPRLPRPRPRPSKWPRP, the “shrunken log2 fold change” value was -0.241.

Source of the values: the supplement of paper PMC9112550, “Optimization of the antimicrobial peptide Bac7 by deep mutational scanning” (BMC Biology, 2022).
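Also: peptides expressed intracellularly from a pBAD plasmid library in pooled LB shake-flask culture, induced with 0.3% L-arabinose, DNA abundance read by NGS, three biological replicates, DESeq2 with apeglm shrinkage.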
